Measurements from the supplement of paper PMC7877785.
± gives the uncertainty stated by the source.

Test: self-splicing fitness, log relative to wild type (ln ratio); higher = more splicing; Tetrahymena group I intron in knt gene, E. coli kanamycin selection, DiMSum; sequences stand for … in CUCUCU…GGAGGGAAAAGUUAUCAGGCAUGCACCUGGUAGCUAGUCUUUAAACCAAUAGAUUGCAUCGGUUUAAAAGGCAAGACCGUCAAAUUGCGGGAAAGGGGUCAACAGCCGUUCAGUACCAAGUCUCAGGGGAAACUUUGAGAUGGCCUUGCAAAGGGUAUGGUAAUAAGCUGACGGACAUGGUCCUAACCACGCAGCCAAGUCCUAAGUCAACAGAUCUUCUGUUGAUAUGGAUGCAGUUCACAGACUAAAUGUCGGUCGGGGAAGAUGUAUUCUUCUCAUAAGAUAUAGUCGGACCUCUCCUUAAUGGGAGCUAGCGGAUGAAGUGAUGCAACACUGGAGCCGCUGGGAACUAAUUUGUAUGCGAAAGUAUAUUGAUUAGUUUUGGAGUACUCGUGGUCG
How it was run: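 Fitness was computed with DiMSum as the error-weighted combination of replicate fold changes, kanamycin versus none, each normalised to wild type. The library randomised all eight intron nucleotides of the P1ex region, with the intron placed in the knt kanamycin-resistance gene on pET-22b(+) in E. coli BL21(DE3). Six replicate transformations were grown overnight at 37°C or 30°C on LB agar with or without 25 μg/mL kanamycin, plus 100 μg/mL carbenicillin, 50 μM IPTG and 0.2% rhamnose. Pooled colonies were amplicon-sequenced on an Illumina HiSeq 2500.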

Sequence: UCGAAGCAAUAUUACGUUUU
- self-splicing fitness (ln) (30 °C): -3.28 ± 0.14
- self-splicing fitness (ln) (37 °C): -3.09 ± 0.29

Sequence: GACUAGCAAUAUUACGACCA
- self-splicing fitness (ln) (30 °C): -0.781 ± 0.17
- self-splicing fitness (ln) (37 °C): 0.287 ± 0.18

Sequence: GAGUAGCAAUAUUACGACCA
- self-splicing fitness (ln) (30 °C): -1.81 ± 0.12
- self-splicing fitness (ln) (37 °C): 0.176 ± 0.15

Sequence: UACUAGCAAUAUUACGACAC
- self-splicing fitness (ln) (30 °C): -2.53 ± 0.2
- self-splicing fitness (ln) (37 °C): -0.604 ± 0.15

Sequence: ACUGAGCAAUAUUACGUCAU
- self-splicing fitness (ln) (30 °C): -4.08 ± 0.39
- self-splicing fitness (ln) (37 °C): -2.26 ± 0.19

Sequence: UGUAAGCAAUAUUACGUCUU
- self-splicing fitness (ln) (30 °C): -1.74 ± 0.093
- self-splicing fitness (ln) (37 °C): -0.338 ± 0.11

Sequence: UAAGAGCAAUAUUACGGCUG
- self-splicing fitness (ln) (30 °C): -1.55 ± 0.12
- self-splicing fitness (ln) (37 °C): -0.424 ± 0.18

Sequence: AGCAAGCAAUAUUACGUAAU
- self-splicing fitness (ln) (30 °C): -1.99 ± 0.1
- self-splicing fitness (ln) (37 °C): -1.27 ± 0.12

Sequence: UACAAGCAAUAUUACGUACG
- self-splicing fitness (ln) (30 °C): -3.9 ± 0.22
- self-splicing fitness (ln) (37 °C): -1.3 ± 0.13

Sequence: CGACAGCAAUAUUACGAGAG
- self-splicing fitness (ln) (30 °C): -3.42 ± 0.12
- self-splicing fitness (ln) (37 °C): -1.95 ± 0.11

Sequence: AUCAAGCAAUAUUACGAUGG
- self-splicing fitness (ln) (30 °C): -3.43 ± 0.26
- self-splicing fitness (ln) (37 °C): -2.67 ± 0.2

Sequence: GCCGAGCAAUAUUACGGUUU
- self-splicing fitness (ln) (30 °C): -2.38 ± 0.098
- self-splicing fitness (ln) (37 °C): -0.815 ± 0.095

Sequence: CGCCAGCAAUAUUACGUUAC
- self-splicing fitness (ln) (30 °C): -1.91 ± 0.22
- self-splicing fitness (ln) (37 °C): -3.49 ± 0.31

Sequence: GACAAGCAAUAUUACGCCAG
- self-splicing fitness (ln) (30 °C): -3.1 ± 0.3

Sequence: AGCUAGCAAUAUUACGAAAU
- self-splicing fitness (ln) (30 °C): -2.4 ± 0.15
- self-splicing fitness (ln) (37 °C): -1.83 ± 0.2

Sequence: UACAAGCAAUAUUACGGCUA
- self-splicing fitness (ln) (30 °C): -0.336 ± 0.06
- self-splicing fitness (ln) (37 °C): 0.201 ± 0.088

Sequence: UUUCAGCAAUAUUACGUUUC
- self-splicing fitness (ln) (37 °C): -2.28 ± 0.29

Sequence: UAUGAGCAAUAUUACGGGAA
- self-splicing fitness (ln) (37 °C): -2.7 ± 0.41

Sequence: UCAUAGCAAUAUUACGAGGG
- self-splicing fitness (ln) (30 °C): -2.24 ± 0.21
- self-splicing fitness (ln) (37 °C): -1.83 ± 0.29

Sequence: CAUCAGCAAUAUUACGGCAU
- self-splicing fitness (ln) (30 °C): -2.85 ± 0.15
- self-splicing fitness (ln) (37 °C): -1.66 ± 0.17

Sequence: AUAGAGCAAUAUUACGGAUC
- self-splicing fitness (ln) (30 °C): -2.96 ± 0.3
- self-splicing fitness (ln) (37 °C): -2.14 ± 0.31

Sequence: GAUUAGCAAUAUUACGGGAA
- self-splicing fitness (ln) (30 °C): -1.67 ± 0.26
- self-splicing fitness (ln) (37 °C): -3.27 ± 0.43

Sequence: UACUAGCAAUAUUACGGUAC
- self-splicing fitness (ln) (30 °C): -3.01 ± 0.18
- self-splicing fitness (ln) (37 °C): -2.53 ± 0.23

Sequence: UUGCAGCAAUAUUACGGUAU
- self-splicing fitness (ln) (30 °C): -1.86 ± 0.11
- self-splicing fitness (ln) (37 °C): -1.63 ± 0.14

Sequence: CAAAAGCAAUAUUACGUGGC
- self-splicing fitness (ln) (30 °C): -3.26 ± 0.13
- self-splicing fitness (ln) (37 °C): -2.6 ± 0.2

Sequence: CAUCAGCAAUAUUACGCGAG
- self-splicing fitness (ln) (30 °C): 0.128 ± 0.083
- self-splicing fitness (ln) (37 °C): -0.05 ± 0.1

Sequence: UAAUAGCAAUAUUACGACGC
- self-splicing fitness (ln) (30 °C): -2.84 ± 0.34

Sequence: UCCUAGCAAUAUUACGUCGC
- self-splicing fitness (ln) (30 °C): -4.08 ± 0.42
- self-splicing fitness (ln) (37 °C): -2.58 ± 0.36

Sequence: UUGGAGCAAUAUUACGUUGC
- self-splicing fitness (ln) (37 °C): -1.44 ± 0.45

Sequence: CGCUAGCAAUAUUACGUCCA
- self-splicing fitness (ln) (30 °C): -1.49 ± 0.27
- self-splicing fitness (ln) (37 °C): -1.04 ± 0.29

Sequence: UUACAGCAAUAUUACGUGGG
- self-splicing fitness (ln) (30 °C): -2.85 ± 0.11
- self-splicing fitness (ln) (37 °C): -2.43 ± 0.13

Sequence: UACGAGCAAUAUUACGGAAU
- self-splicing fitness (ln) (30 °C): -2.71 ± 0.27
- self-splicing fitness (ln) (37 °C): -2.76 ± 0.34

Sequence: UAGGAGCAAUAUUACGUCCU
- self-splicing fitness (ln) (30 °C): -1.63 ± 0.18
- self-splicing fitness (ln) (37 °C): -2.25 ± 0.26

Sequence: ACCAAGCAAUAUUACGCUGU
- self-splicing fitness (ln) (30 °C): -1.61 ± 0.067
- self-splicing fitness (ln) (37 °C): -0.313 ± 0.074

Sequence: AUCAAGCAAUAUUACGGCGA
- self-splicing fitness (ln) (30 °C): -0.555 ± 0.077
- self-splicing fitness (ln) (37 °C): 0.246 ± 0.1

Sequence: GUUGAGCAAUAUUACGAACG
- self-splicing fitness (ln) (37 °C): -1.12 ± 0.35

Sequence: CAUUAGCAAUAUUACGUAUA
- self-splicing fitness (ln) (30 °C): -2.34 ± 0.14
- self-splicing fitness (ln) (37 °C): -0.81 ± 0.12

Sequence: CACAAGCAAUAUUACGUAGU
- self-splicing fitness (ln) (30 °C): -3.4 ± 0.12
- self-splicing fitness (ln) (37 °C): -1.81 ± 0.11

Sequence: UUUCAGCAAUAUUACGGCGC
- self-splicing fitness (ln) (30 °C): -1.11 ± 0.11
- self-splicing fitness (ln) (37 °C): -1.58 ± 0.16

Sequence: UGAAAGCAAUAUUACGAGAA
- self-splicing fitness (ln) (30 °C): -2.32 ± 0.23
- self-splicing fitness (ln) (37 °C): -1.22 ± 0.15

Sequence: GGACAGCAAUAUUACGUCUA
- self-splicing fitness (ln) (30 °C): -0.35 ± 0.081
- self-splicing fitness (ln) (37 °C): -0.114 ± 0.097

Sequence: CUCCAGCAAUAUUACGGUAA
- self-splicing fitness (ln) (30 °C): -1.4 ± 0.13
- self-splicing fitness (ln) (37 °C): -1.8 ± 0.15

Sequence: UUGCAGCAAUAUUACGCUUU
- self-splicing fitness (ln) (30 °C): -2.64 ± 0.12
- self-splicing fitness (ln) (37 °C): -2.11 ± 0.15

Sequence: GGAGAGCAAUAUUACGGUCU
- self-splicing fitness (ln) (37 °C): -2.31 ± 0.48

Sequence: AAAUAGCAAUAUUACGUGCC
- self-splicing fitness (ln) (30 °C): -1.46 ± 0.084
- self-splicing fitness (ln) (37 °C): -0.919 ± 0.09

Sequence: GUCCAGCAAUAUUACGGUUA
- self-splicing fitness (ln) (30 °C): -0.0348 ± 0.05
- self-splicing fitness (ln) (37 °C): 0.165 ± 0.055

Sequence: UCCGAGCAAUAUUACGGCGU
- self-splicing fitness (ln) (30 °C): -1.17 ± 0.081
- self-splicing fitness (ln) (37 °C): -0.438 ± 0.11

Sequence: AUUGAGCAAUAUUACGAAUU
- self-splicing fitness (ln) (30 °C): -2.85 ± 0.23
- self-splicing fitness (ln) (37 °C): -1.71 ± 0.24

Sequence: CAAUAGCAAUAUUACGUGUG
- self-splicing fitness (ln) (30 °C): -1.72 ± 0.053
- self-splicing fitness (ln) (37 °C): -0.748 ± 0.063

Sequence: ACUAAGCAAUAUUACGUCAA
- self-splicing fitness (ln) (30 °C): -3.07 ± 0.17
- self-splicing fitness (ln) (37 °C): -1.35 ± 0.14
